± gives the uncertainty stated by the source.

Data on 26 sequences can be found in the supplement of paper PMC9732359.

A short description of the series: protein stability index of a GFP-peptide fusion (yeast GPS) (PSI 1-4); higher = more stable; sorted into four equal gates, so the index is relative within each strain. The method, boiled down: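 Tiled 17-residue peptides from yeast proteins were fused downstream of GFP on a plasmid that also expresses Cherry, and the pooled library was carried in yeast. Mid-log cultures grown in leucine-free medium were sorted into four equal gates by GFP/Cherry fluorescence ratio. Plasmids from each gate were PCR-amplified and Illumina-sequenced, and reads were assigned to strains by barcodes. Each peptide's protein stability index is the sum, over gates, of the gate's read frequency multiplied by its gate number.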

Consider LGIKVAELTGDSRLSRK [BRR2], for which the protein stability index worked out at 2.18 ± 0.19 (pdr5∆) and 2.67 ± 0.16 (san1∆).
Regarding EEDYNEFNSIDRVIFRV [PRP8], the protein stability index is 3.27 ± 0.1 (doa10∆), 3.17 ± 0.11 (pdr5∆), 3.02 ± 0.19 (san1∆) and 2.94 ± 0.068 (ubr1∆).
Sequence KLLQLAGVEDVYTQSNG [RPS2] came in with a protein stability index (doa10∆) of 1.56 ± 0.066, a protein stability index (pdr5∆) of 2.64 ± 0.13, a protein stability index (san1∆) of 3.19 ± 0.13 and a protein stability index (ubr1∆) of 3.13 ± 0.086.
Consider LIDSLPGVDVSAEEQLR [SRB7], for which the protein stability index runs as follows: (doa10∆) 2.59 ± 0.064; (pdr5∆) 2.23 ± 0.055; (san1∆) 1.96 ± 0.068; (ubr1∆) 1.84 ± 0.043.
LDRPEYLKKREAGEVKD [RPL10] came in with a protein stability index (doa10∆) of 3.27 ± 0.12, a protein stability index (pdr5∆) of 3.15 ± 0.15, a protein stability index (san1∆) of 3.35 ± 0.044 and a protein stability index (ubr1∆) of 3.42 ± 0.084.
On to IRSERFKVARELKTEAA [ITC1], for which, under “pdr5∆”, the protein stability index is 2.25 ± 0.25.
As for LKLNHIIANINSFTKGN [SNU114], the protein stability index came out at 1.52 ± 0.059 (doa10∆), 2.15 ± 0.062 (pdr5∆), 1.83 ± 0.054 (san1∆) and 1.84 ± 0.035 (ubr1∆).
In the case of FMGTAFNQEGDYNFKYG [PRP8], the protein stability index came to 3.02 ± 0.11 (doa10∆), 3.1 ± 0.09 (pdr5∆), 3.34 ± 0.098 (san1∆) and 3.18 ± 0.072 (ubr1∆).
As to LGYKDTSVIQDLSEKIL [BRR2], the protein stability index (doa10∆) turned out to be 2.77 ± 0.098, the protein stability index (pdr5∆) was 2.8 ± 0.098, the protein stability index (san1∆) is 2.81 ± 0.063 and the protein stability index (ubr1∆) amounted to 2.89 ± 0.065.
In the same order, the values of FVSNMGFDIQKSCEPVS [SIR4] are 2.06 ± 0.066, 2.05 ± 0.12, 1.68 ± 0.24 and 2.12 ± 0.075.
Take NDGNNRTNNVPMIKAEE [NUT1]: the protein stability index reads like this: (doa10∆) 3.05 ± 0.17; (pdr5∆) 3.31 ± 0.14; (san1∆) 2.65 ± 0.17; (ubr1∆) 3.77 ± 0.16.
For GPKKNVFYAPNVKNYST [RPC34], the protein stability index by setting is: (doa10∆) 2.69 ± 0.072; (pdr5∆) 2.56 ± 0.059; (san1∆) 2.91 ± 0.056; (ubr1∆) 2.49 ± 0.044.
The sequence EIRPEMLGHYLGEFSIT [RPS15] came in with a protein stability index (pdr5∆) of 3.02 ± 0.08, a protein stability index (san1∆) of 3.11 ± 0.19 and a protein stability index (ubr1∆) of 2.87 ± 0.17.
On to SFSLTVSKEQFLKDADV [YJL039C/NUP192], for which the protein stability index runs as follows: (doa10∆) 1.47 ± 0.041; (pdr5∆) 1.45 ± 0.056; (san1∆) 1.54 ± 0.11; (ubr1∆) 1.64 ± 0.045.
In the same order, the values of VDTLHNKEGTLEQREQN [SSN2] are 3.14 ± 0.15, 3.47 ± 0.099, 3.21 ± 0.058 and 3.35 ± 0.081.
In the same order, the values of GKKASLNVGNVLPLGSV [RPL2A] are 2.4 ± 0.051, 2.29 ± 0.057, 2.51 ± 0.078 and 2.56 ± 0.042.
Taken in the same sequence, the figures for FTKYKPARSSSLRSNVV [YAR002W/NUP60] were 1.79 ± 0.046, 2.44 ± 0.045, 2.17 ± 0.07 and 2.7 ± 0.04.
Sequence VTKILPHLIIQNHNSKS [IRR1] registered a protein stability index (doa10∆) of 1.41 ± 0.11, a protein stability index (pdr5∆) of 1.19 ± 0.072, a protein stability index (san1∆) of 1.16 ± 0.13 and a protein stability index (ubr1∆) of 1.15 ± 0.073.
As to LIPTIFRYITTWENEFL [PRP8], the protein stability index (doa10∆) amounted to 2.38 ± 0.056, the protein stability index (pdr5∆) stood at 2.04 ± 0.047, the protein stability index (san1∆) came out at 1.75 ± 0.054 and the protein stability index (ubr1∆) was 2.21 ± 0.034.
As to YLEDIIGTANYKPLIEE [SMC4], the protein stability index runs as follows: (doa10∆) 2.95 ± 0.1; (pdr5∆) 3.28 ± 0.11; (san1∆) 3.17 ± 0.077; (ubr1∆) 3.23 ± 0.076.
Taken in the same sequence, the figures for LSIQYMIQKVMEYLKSS [RPN5] were 1.38 ± 0.082, 1.56 ± 0.082, 1.59 ± 0.2 and 1.69 ± 0.11.
Taken in the same sequence, the figures for TSLFGSSSAQQTKSNGT [YJL041W/NSP1] were 3.23 ± 0.11, 3.4 ± 0.098, 2.71 ± 0.13 and 3.19 ± 0.073.
Taken in the same sequence, the figures for SSLYEASLNALKESIKN [RPN1] were 3.26 ± 0.1, 3.1 ± 0.1, 3.38 ± 0.085 and 3.08 ± 0.065.
ADTIDHDELIDSIPRDV [YGL172W/NUP49] had a protein stability index (doa10∆) of 2.95 ± 0.098, a protein stability index (pdr5∆) of 3.24 ± 0.085, a protein stability index (san1∆) of 3.07 ± 0.056 and a protein stability index (ubr1∆) of 2.88 ± 0.075.
With QDRDRFFLRDTLLWNKN [SNF5], the protein stability index (doa10∆) stood at 2.99 ± 0.056, the protein stability index (pdr5∆) came to 3.08 ± 0.052, the protein stability index (san1∆) came to 2.83 ± 0.046 and the protein stability index (ubr1∆) was found to be 3 ± 0.039.
Consider KAANFIQNQSPQFNSPY [SWI1], for which the protein stability index is, setting by setting: (doa10∆) 1.99 ± 0.061; (pdr5∆) 1.71 ± 0.046; (san1∆) 2.37 ± 0.065; (ubr1∆) 2.42 ± 0.058.
